In patent publication US20240374747A1, “FUSION PROTEIN OF VHH ANTIBODY AND STREPTAVIDIN MUTANT” (The University of Tokyo, priority 2023, published 2024):
Read-outs that look alike come from different tables or passages of the source.

What was measured:
[1] = test system: Her2-positive cells (KPL-4); assay type: cell-based
Procedure: Her2-positive cells (KPL-4) were seeded on a 96-well plate to result in a cell count of 1×10^3 cells/well and a culture solution amount of 50 μL/well and were then cultured overnight. […] After the dilution series had been prepared, 50μ of the complex was each added to the cells, and the cells are cultured for 6 to 7 days. […] A reagent was added in accordance with the dosage and administration described in the instruction manual, and the resulting cells were then incubated at 37° C. in a CO2 incubator for 1.5 hours. After that, the absorbance at 450 nm was measured, and the mean value was then calculated, followed by background correction. Thereafter, the control was set at 100%, and the cell proliferation percentage to the control under individual conditions was calculated.

[2] = pH conditions of dialysis buffer for tetramer formation (non-reducing electrophoresis, densitometry); assay type: physicochemical
Procedure: Then, the sample was put into dialysis tube and dialyzed with buffers (50 mM sodium phosphate, 400 mM arginine HCl, pH 4.0˜8.0). 100 μL of the sample after refolding was dialyzed at 25° C. for 1 hour using 30 mL of buffer and the Mini Dialysis Kit 1 kD (Cytiva). Thereafter, dialysis was performed at 4° C. for 18 hours with 30 mL of fresh buffer, followed by overnight dialysis at 4° C. with 30 mL of fresh buffer. The post-dialysis samples from each pH condition were analyzed by non-reducing electrophoresis and the result image was shown in FIG. 7. […] As shown in FIG. 7 and Table 2, the monomers were equal to or less than 8% and the tetramers were equal to or more than 92% in pH of 6.0 or less, whereas the percentage of monomers increased at a pH of 6.5 or more. At pH 8.0, the same as the pH of refolding buffer B, 81% of the monomers and 19% of the tetramers were present. […] The theoretical pIs of Anti-HER2 VHH and Cupid moieties were approximately 7.6 and 6.5, respectively. Therefore, it is preferable that a buffer for tetramer formation should be pH 6.0 or less to avoid aggregation induced by the Cupid moiety.

[3] = SPR analysis of interaction between Anti-HER2 VHH-Cupid and Psyche-Duocarmycin (Biacore T200); assay type: binding
Procedure: The surface plasmon resonance (SPR) analysis was performed using a Biacore T200 (Cytiva). […] The association and dissociation rate constants were evaluated using Biacore T200 Evaluation Software version 3 (Cytiva) by bivalent analyte model, and KD values were calculated.

[4] = test system: Her2-positive cells (KPL-4)
Procedure: Her2-positive cells (KPL-4) were seeded on a 96-well plate to result in a cell count of 1×10^4 cells/well and a culture solution amount of 50 μL/well and were then cultured overnight. […] A reagent was added in accordance with the dosage and administration described in the instruction manual, and the resulting cells were then incubated at 37° C. in a CO2 incubator for 1.5 hours. […] Thereafter, the control was set at 100%, and the cell proliferation percentage to the control under individual conditions was calculated.

[5] = pH conditions of dialysis buffer for tetramer formation (non-reducing electrophoresis, densitometry); assay type: physicochemical; details: dialyzed with refolding buffer B (pH 8.0) to remove guanidine hydrochloride

B1: Anti-HER2 VHH-Cupid: fusion protein of an anti-HER2 VHH single-domain antibody (SEQ ID NO: 2), Gly-Ser linker and Cupid mutant streptavidin; forms a tetramer (protein)
chain: MQVQLQESGGGSVQAGGSLKLTCAASGYIFNSCGMGWYRQSPGRERELVSRISGDGDTWHKESVKGRFTISQDNVKKTLYLQMNSLKPEDTAVYFCAVCYNLETYWGQGTQVTVSSGGGGSGGGGSGGGGSAEAGITGTWSDQLGDTFIVTAGADGALTGTYENAVGGAESRYVLTGRYDSAPATDGSGTALGWTVAWKNNSKNAHSATTWSGQYVGGADAKINTQWLLTSGTTNANAWKSTLVGHDTFTKVKPSAASHHHHHH
modifications: tetramer
notes: forms a tetramer
[1]
  cytotoxic activity compared with FL2 as vector: stronger cytotoxic activity than FL2
[2]; dialysis buffer pH 4.0
  Monomer band (%): 4%
  Tetramer band (%): 96%
[2]; dialysis buffer pH 5.0
  Monomer band (%): 6%
  Tetramer band (%): 94%
[2]; dialysis buffer pH 5.5
  Monomer band (%): 8%
  Tetramer band (%): 92%
[2]; dialysis buffer pH 6.0
  Monomer band (%): 8%
  Tetramer band (%): 92%
[2]; dialysis buffer pH 6.5
  Monomer band (%): 13%
  Tetramer band (%): 87%
[2]; dialysis buffer pH 7.0
  Monomer band (%): 35%
  Tetramer band (%): 65%
[2]; dialysis buffer pH 7.5
  Monomer band (%): 77%
  Tetramer band (%): 23%
[2]; dialysis buffer pH 8.0
  Monomer band (%): 81%
  Tetramer band (%): 19%
[2]; dialysis buffers pH 4.0-8.0, FIG. 7
  tetramer formation of the refolded sample: formed tetramers in pH-dependent manner
[2]; pH of 6.0 or less
  percentage of monomers: ≤ 8%
  percentage of tetramers: ≥ 92%
[3]; Anti-HER2 VHH-Cupid captured via anti-histidine antibody, Psyche-Duocarmycin analyte 10 nM to 0.3125 nM, bivalent analyte model
  association rate constant (Ka1): 1.336×10^4 l/Ms
[3]; SPR
  binding activity to Psyche-Duocarmycin: had binding activity to Psyche-Duocarmycin
[4]
  cytotoxic activity compared with FL2 as vector: stronger cytotoxic activity than FL2
[5]
  oligomeric state after dialysis with refolding buffer B: almost all of the Anti-HER2 VHH-Cupid were monomeric
